Measurements taken from US20200282035A1 (MILTENYI BIOTEC B V, published 2020).
Each block holds one binder with its values, some of them ahead of it.

How the values were obtained:
TSPAN8 = molecular target: T1, TSPAN8 (human, UniProt P19075 1-237); experiment: scFv as binding domain of a CAR on T cells; told in words only, no direct binding assay
T1 construct: whole, on cells
T1 sequence (looked up): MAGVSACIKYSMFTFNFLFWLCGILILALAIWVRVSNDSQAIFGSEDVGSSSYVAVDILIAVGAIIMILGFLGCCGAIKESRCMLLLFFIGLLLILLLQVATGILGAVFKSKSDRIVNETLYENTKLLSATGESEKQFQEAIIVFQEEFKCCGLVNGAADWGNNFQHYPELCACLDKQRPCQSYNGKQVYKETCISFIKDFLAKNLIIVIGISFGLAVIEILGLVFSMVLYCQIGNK

CD73 [1] = molecular target: T2, CD73 (human, UniProt P21589 27-549); experiment: as above
T2 construct: whole, on cells
T2 sequence (looked up): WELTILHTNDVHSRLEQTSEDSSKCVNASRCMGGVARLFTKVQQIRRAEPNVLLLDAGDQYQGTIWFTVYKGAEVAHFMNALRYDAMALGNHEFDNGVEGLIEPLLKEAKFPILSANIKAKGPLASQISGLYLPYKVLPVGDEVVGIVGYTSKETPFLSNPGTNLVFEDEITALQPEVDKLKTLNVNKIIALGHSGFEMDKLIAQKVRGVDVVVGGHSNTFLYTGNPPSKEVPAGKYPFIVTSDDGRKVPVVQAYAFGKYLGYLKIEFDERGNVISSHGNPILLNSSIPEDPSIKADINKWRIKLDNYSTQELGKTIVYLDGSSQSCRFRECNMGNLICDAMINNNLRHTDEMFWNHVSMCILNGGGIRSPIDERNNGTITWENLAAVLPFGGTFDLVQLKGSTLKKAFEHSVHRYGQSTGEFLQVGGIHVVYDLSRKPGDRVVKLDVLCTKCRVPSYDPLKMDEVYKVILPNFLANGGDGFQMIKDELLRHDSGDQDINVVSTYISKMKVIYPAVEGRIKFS

CD318 = molecular target: T3, CD318 (human, UniProt Q9H5V8 30-836); experiment: as above
T3 construct: whole, on cells
T3 sequence (looked up): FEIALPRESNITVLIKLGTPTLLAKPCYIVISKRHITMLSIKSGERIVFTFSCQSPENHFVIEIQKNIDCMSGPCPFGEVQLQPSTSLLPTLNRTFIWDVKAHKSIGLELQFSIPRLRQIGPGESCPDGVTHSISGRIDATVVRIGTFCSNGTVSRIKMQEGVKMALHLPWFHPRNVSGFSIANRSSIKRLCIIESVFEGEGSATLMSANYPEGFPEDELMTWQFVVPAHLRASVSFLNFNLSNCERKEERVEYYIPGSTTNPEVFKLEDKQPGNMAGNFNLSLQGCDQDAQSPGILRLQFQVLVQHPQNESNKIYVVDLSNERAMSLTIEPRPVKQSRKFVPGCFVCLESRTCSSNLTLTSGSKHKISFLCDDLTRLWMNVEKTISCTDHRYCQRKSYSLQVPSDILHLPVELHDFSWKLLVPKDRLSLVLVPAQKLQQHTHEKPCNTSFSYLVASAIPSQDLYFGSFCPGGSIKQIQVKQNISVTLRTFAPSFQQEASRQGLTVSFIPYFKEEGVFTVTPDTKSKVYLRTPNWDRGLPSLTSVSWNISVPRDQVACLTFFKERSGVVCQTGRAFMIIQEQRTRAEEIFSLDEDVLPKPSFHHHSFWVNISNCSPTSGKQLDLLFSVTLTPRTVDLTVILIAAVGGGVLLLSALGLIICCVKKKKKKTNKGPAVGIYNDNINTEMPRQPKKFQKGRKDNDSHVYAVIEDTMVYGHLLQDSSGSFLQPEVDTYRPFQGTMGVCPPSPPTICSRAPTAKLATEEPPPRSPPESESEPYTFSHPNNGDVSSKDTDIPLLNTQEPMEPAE

CD142 [2] = molecular target: T4, CD142 (human, UniProt P13726 33-295); experiment: as above
T4 construct: whole, on cells

CD66c [3] = molecular target: T5, CD66c (human, UniProt P40199 35-320); experiment: as above
T5 construct: whole, on cells
T5 sequence (looked up): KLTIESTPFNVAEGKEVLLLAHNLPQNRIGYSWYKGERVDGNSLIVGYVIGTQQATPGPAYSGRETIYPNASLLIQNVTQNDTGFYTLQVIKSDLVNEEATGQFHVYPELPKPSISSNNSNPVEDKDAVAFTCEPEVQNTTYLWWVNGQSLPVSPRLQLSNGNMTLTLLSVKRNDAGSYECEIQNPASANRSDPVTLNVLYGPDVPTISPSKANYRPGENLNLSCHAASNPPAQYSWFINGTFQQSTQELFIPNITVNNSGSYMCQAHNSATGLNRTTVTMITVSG

CD66c [4] = molecular target: T5, CD66c; experiment: antibody used for staining of human pancreatic cancer cells (flow cytometry, immunohistochemistry; Example 1); told in words only
CD142 [5] = molecular target: T4, CD142; experiment: as above
CD73 [6] = molecular target: T2, CD73; experiment: as above

B1: TSPAN8 specific CAR sequence VH-linker-VL (scFv)
scFv: EVKLLESGGGLVQPGGSMRLSCAASGFTFTDFYMNWIRQPAGKAPEWLGFIRNKASGYTTEYNPSVKGRFTISRDNTQNMLYLQMNTLRAEDTATYYCARAHSYYGYDYFDYWGQGVMVTVSSGGGGSGGGGSGGGGSDIQMTQSPASLSASLEEIVTITCQASQDIGNWLSWYQQKPGKSPQLLIYGATSLADGVPSRFSGSRSGTQYSLKISRLQVEDIRIYYCLQAYSAPWTFGGGTKLELK
notes: not shown: hinge, transmembrane and signalling domains of the CAR
binding result (TSPAN8): binds

B3: CD318 specific CAR sequence VH-linker-VL (scFv)
scFv: EVQLQQSGAELVRPGALVKLSCKASGFNIKDYYIHWVKQRPEQGLEWIGWIDPENGHTIYDPKFQGKASITADTSSNTAYLQLSSLTSEDTAVYYCARLTGTTYAMDYWGQGTSVTVSSGGGGSGGGGSGGGGSDIVMTQSHKFMSTSVGDRVSITCKASQDVSTAVAWYQQKSGQSPKLLIYWASTRHTGVPDRFTGSGSGTDYTLTISSVQAEDLALYYCQQHYSTPYTFGGGTKLEIK
notes: as for B1
binding result (CD318): binds

B4: CD142 specific CAR sequence VL-linker-VH (scFv)
scFv: QIVLTQSPALMSASPGEKVTMTCSASSSVTYMYWYQQKPRSSPKPWIYLTSNLASGVPARFSGSGSGTSYSLTISSVEAEDAATYYCQQWSSNPLTFGAGTKLELKGGGGSGGGGSGGGGSQVQLKQSGPGLVQPSQSLSITCTVSGFSLSNYGVHWVRQSPGKGLEWLGVIWSGGSTDYNVAFISRLIITKDNSKSQVFLKMNSLQADDTAIYFCARTTGSVFNAMDHWGQGTSVTVSS
notes: as for B1
binding result (CD142 [2]): binds

B8: CD142 specific antibody (antibody, V domains shown)
VH: QVQLKQSGPGLVQPSQSLSITCTVSGFSLSNYGVHWVRQSPGKGLEWLGVIWSGGSTDYNVAFISRLIITKDNSKSQVFLKMNSLQADDTAIYFCARTTGSVFNAMDHWGQGTSVTVSS
VL: QIVLTQSPALMSASPGEKVTMTCSASSSVTYMYWYQQKPRSSPKPWIYLTSNLASGVPARFSGSGSGTSYSLTISSVEAEDAATYYCQQWSSNPLTFGAGTKLELK
notes: also called CD142 VH
binding result (CD142 [5]): binds

B9: CD142 specific CAR sequence VH-linker-VL (scFv)
scFv: QVQLKQSGPGLVQPSQSLSITCTVSGFSLSNYGVHWVRQSPGKGLEWLGVIWSGGSTDYNVAFISRLIITKDNSKSQVFLKMNSLQADDTAIYFCARTTGSVFNAMDHWGQGTSVTVSSGGGGSGGGGSGGGGSQIVLTQSPALMSASPGEKVTMTCSASSSVTYMYWYQQKPRSSPKPWIYLTSNLASGVPARFSGSGSGTSYSLTISSVEAEDAATYYCQQWSSNPLTFGAGTKLELK
notes: as for B1
binding result (CD142 [2]): binds

B11: CD318 specific CAR sequence VL-linker-VH (scFv)
scFv: DIVMTQSHKFMSTSVGDRVSITCKASQDVSTAVAWYQQKSGQSPKLLIYWASTRHTGVPDRFTGSGSGTDYTLTISSVQAEDLALYYCQQHYSTPYTFGGGTKLEIKGGGGSGGGGSGGGGSEVQLQQSGAELVRPGALVKLSCKASGFNIKDYYIHWVKQRPEQGLEWIGWIDPENGHTIYDPKFQGKASITADTSSNTAYLQLSSLTSEDTAVYYCARLTGTTYAMDYWGQGTSVTVSS
notes: as for B1
binding result (CD318): binds

B12: CD73 specific antibody (antibody, V domains shown)
VH: EVQLQQSGAELVKPGASVKLSCTASGFNIKDTYIHWVKQRPEQGLEWIGRIDPATGNTEYDPKFQGKATITADTSSNTAYLHLSSLTSEDTAVYYCARGYYGSSYPPWFAYWGQGTLVTVSA
VL: DIVMTQSHKFMSTSVGDRVSITCKASQDVGSAVAWYQQKPGQSPKLLIYWASTRHTGVPDRFTGSGSGTDFTLTISNVQSEDLADYFCQQYSSYPLTFGAGTKLELK
notes: also called CD73 VH
binding result (CD73 [6]): binds

B13: CD66c specific CAR sequence VL-linker-VH (scFv)
scFv: DIVMTQSQKFMSTSVGDRVSVTCKASQNVVTNVAWYQQTPGQSPKALIYSASYRYSGVPDRFSGSGSGTDFTLTISNVQSGDLAEYFCQQYNSYPLTFGAGTKLELKGGGGSGGGGSGGGGSQVTLKESGPGILKPSQTLSLTCSFSGFSLSTSGMGVGWIRQPSGKSLEWLAHIWWNDERYYNPSLKNQLTISKDTSRNQVFLKITSVDTADTATYYCARSPRGYFDYWGHGTTLTVSS
notes: as for B1
binding result (CD66c [3]): binds

Second part, the binder after the results:

binding result (CD73 [1]): binds
B2: CD73 specific CAR sequence VL-linker-VH (scFv)
scFv: DIVMTQSHKFMSTSVGDRVSITCKASQDVGSAVAWYQQKPGQSPKLLIYWASTRHTGVPDRFTGSGSGTDFTLTISNVQSEDLADYFCQQYSSYPLTFGAGTKLELKGGGGSGGGGSGGGGSEVQLQQSGAELVKPGASVKLSCTASGFNIKDTYIHWVKQRPEQGLEWIGRIDPATGNTEYDPKFQGKATITADTSSNTAYLHLSSLTSEDTAVYYCARGYYGSSYPPWFAYWGQGTLVTVSA
notes: as for B1

binding result (TSPAN8): binds
B5: TSPAN8 specific CAR sequence VL-linker-VH (scFv)
scFv: DIQMTQSPASLSASLEEIVTITCQASQDIGNWLSWYQQKPGKSPQLLIYGATSLADGVPSRFSGSRSGTQYSLKISRLQVEDIRIYYCLQAYSAPWTFGGGTKLELKGGGGSGGGGSGGGGSEVKLLESGGGLVQPGGSMRLSCAASGFTFTDFYMNWIRQPAGKAPEWLGFIRNKASGYTTEYNPSVKGRFTISRDNTQNMLYLQMNTLRAEDTATYYCARAHSYYGYDYFDYWGQGVMVTVSS
notes: as for B1

binding result (CD66c [3]): binds
B6: CD66c specific CAR sequence VH-linker-VL (scFv)
scFv: QVTLKESGPGILKPSQTLSLTCSFSGFSLSTSGMGVGWIRQPSGKSLEWLAHIWWNDERYYNPSLKNQLTISKDTSRNQVFLKITSVDTADTATYYCARSPRGYFDYWGHGTTLTVSSGGGGSGGGGSGGGGSDIVMTQSQKFMSTSVGDRVSVTCKASQNVVTNVAWYQQTPGQSPKALIYSASYRYSGVPDRFSGSGSGTDFTLTISNVQSGDLAEYFCQQYNSYPLTFGAGTKLELK
notes: as for B1

binding result (CD66c [4]): binds
B7: CD66c specific antibody (antibody, V domains shown)
VH: QVTLKESGPGILKPSQTLSLTCSFSGFSLSTSGMGVGWIRQPSGKSLEWLAHIWWNDERYYNPSLKNQLTISKDTSRNQVFLKITSVDTADTATYYCARSPRGYFDYWGHGTTLTVSS
VL: DIVMTQSQKFMSTSVGDRVSVTCKASQNVVTNVAWYQQTPGQSPKALIYSASYRYSGVPDRFSGSGSGTDFTLTISNVQSGDLAEYFCQQYNSYPLTFGAGTKLELK
notes: also called CD66c VH

binding result (CD73 [1]): binds
B10: CD73 specific CAR sequence VH-linker-VL (scFv)
scFv: EVQLQQSGAELVKPGASVKLSCTASGFNIKDTYIHWVKQRPEQGLEWIGRIDPATGNTEYDPKFQGKATITADTSSNTAYLHLSSLTSEDTAVYYCARGYYGSSYPPWFAYWGQGTLVTVSAGGGGSGGGGSGGGGSDIVMTQSHKFMSTSVGDRVSITCKASQDVGSAVAWYQQKPGQSPKLLIYWASTRHTGVPDRFTGSGSGTDFTLTISNVQSEDLADYFCQQYSSYPLTFGAGTKLELK
notes: as for B1
